The values below come from PMC9600270, “Quantum Dot-Based Screening Identifies F3 Peptide and Reveals Cell Surface Nucleolin as a Therapeutic Target for Rhabdomyosarcoma” (Cancers, 2022).

The data set has as its target nucleolin (cell surface, on RD and Rh30 rhabdomyosarcoma cells) (UniProt P19338). The data set can be described thus: FACS cell binding of QD conjugate. The settings on record: overnight 37 C, 5' AminoC6, QD-aptamer 10 nM (Methods; 20 nM in Figure 5b legend) with adherent cells, 12 h/overnight, 5% CO2, conjugates prepared in PBS pH 7.4/1% BSA.

Sequence of nucleolin (cell surface, on RD and Rh30 rhabdomyosarcoma cells) (P19338 whole entry): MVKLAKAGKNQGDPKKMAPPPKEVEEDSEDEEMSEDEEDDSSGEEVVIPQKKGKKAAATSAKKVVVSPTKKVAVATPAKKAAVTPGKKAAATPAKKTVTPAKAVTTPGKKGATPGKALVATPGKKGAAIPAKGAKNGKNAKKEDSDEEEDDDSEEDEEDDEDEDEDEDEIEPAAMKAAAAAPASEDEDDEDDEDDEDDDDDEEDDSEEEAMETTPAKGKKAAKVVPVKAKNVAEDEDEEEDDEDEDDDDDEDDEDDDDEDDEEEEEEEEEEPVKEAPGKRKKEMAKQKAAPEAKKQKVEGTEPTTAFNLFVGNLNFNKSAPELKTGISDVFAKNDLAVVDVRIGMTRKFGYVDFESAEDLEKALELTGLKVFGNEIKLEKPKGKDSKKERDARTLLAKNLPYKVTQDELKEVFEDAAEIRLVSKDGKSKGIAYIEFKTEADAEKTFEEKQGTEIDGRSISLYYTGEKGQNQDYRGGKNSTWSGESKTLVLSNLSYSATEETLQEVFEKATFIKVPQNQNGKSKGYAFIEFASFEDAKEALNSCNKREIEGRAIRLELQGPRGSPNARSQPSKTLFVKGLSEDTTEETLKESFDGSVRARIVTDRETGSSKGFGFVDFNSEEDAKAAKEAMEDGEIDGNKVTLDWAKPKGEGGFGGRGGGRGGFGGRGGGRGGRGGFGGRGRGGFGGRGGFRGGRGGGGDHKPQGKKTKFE

With “TTGGTGGTGGTGGTTGTGGTGGTGGTGG [AS1411 (AGRO100)]”, the binding signal (fold over QD-NC-AS1411) is, setting by setting: (RD cells) 8.8; (Rh30 cells) 2.2.
